In FireProtDB (doi:10.1021/bi00178a007):

B1: Tissue-type plasminogen activator, P00750 (parent)
chain: MDAMKRGLCCVLLLCGAVFVSPSQEIHARFRRGARSYQVICRDEKTQMIYQQHQSWLRPVLRSNRVEYCWCNSGRAQCHSVPVKSCSEPRCFNGGTCQQALYFSDFVCQCPEGFAGKCCEIDTRATCYEDQGISYRGTWSTAESGAECTNWNSSALAQKPYSGRRPDAIRLGLGNHNYCRNPDRDSKPWCYVFKAGKYSSEFCSTPACSEGNSDCYFGNGSAYRGTHSLTESGASCLPWNSMILIGKVYTAQNPSAQALGLGKHNYCRNPDGDAKPWCHVLKNRRLTWEYCDVPSCSTCGLRQYSQPQFRIKGGLFADIASHPWQAAIFAKHRRSPGERFLCGGILISSCWILSAAHCFQERFPPHHLTVILGRTYRVVPGEEEQKFEVEKYIVHKEFDDDTYDNDIALLQLKSDSSRCAQESSVVRTVCLPPADLQLPDWTECELSGYGKHEALSPFYSERLKEAHVRLYPSSRCTSQHLLNRTVTDNMLCAGDTRSGGPQANLHDACQGDSGGPLVCLNDGRMTLVGIISWGLGCGQKDVPGVYTKVTNYLDWIRDNMRP

Variants of: B1
Settings: Homo sapiens; pH 8; Thermal; DSC; Tris - Oac/100mM NaOAc 50 mM; transition: 2; structure 1PML; whole UniProt chain shown

What does the source list for Y290F?
Tm: 81.5 °C; change of melting temperature, mutant - wild type (higher = more stable): 14.8 °C
